Source: publication doi:10.1101/2020.12.15.422995

Molecular target: T1, Fur (PerR homolog), 17.4 kDa (Bacillus subtilis, UniProt P54574 1-149)
T1 sequence: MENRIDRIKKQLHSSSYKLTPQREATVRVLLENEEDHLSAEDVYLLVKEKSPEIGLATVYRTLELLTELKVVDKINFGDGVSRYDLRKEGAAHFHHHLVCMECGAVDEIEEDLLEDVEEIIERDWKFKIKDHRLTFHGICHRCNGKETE
Assay: EMSA

B1: 54-bp degenerate sloR promoter (Deg_sloR_CC1) (dsDNA)
DNA 1: CCTGATAGGATGATGGATAATTAAGGCTTTTATCCACTTTTTACTGACATTTTG
DNA 2: CAAAATGTCAGTAAAAAGTGGATAAAAGCCTTAATTATCCATCATCCTATCAGG
For B1, the binding signal was 63 % band shift at 60 nM Fur (relative to 400 nM).
